Positions count from the first letter of the chain named. Blank lines part the entries; values can stand above or below the binder they belong to.
What was measured:
[1] = biological target: T1, human CLDN6 (Claudin 6) (human, UniProt P56747 1-220); test: flow cytometry on CHOS-hCLDN6 cells
T1 construct: whole, on cells; Over-expressed on CHOS cells (CHOS-hCLDN6) or naturally expressed on the tumor cells OV90, NEC8, NTERA2 and Bewo; also called hCLDN6; CHOS-hCLDN6
T1 sequence (looked up): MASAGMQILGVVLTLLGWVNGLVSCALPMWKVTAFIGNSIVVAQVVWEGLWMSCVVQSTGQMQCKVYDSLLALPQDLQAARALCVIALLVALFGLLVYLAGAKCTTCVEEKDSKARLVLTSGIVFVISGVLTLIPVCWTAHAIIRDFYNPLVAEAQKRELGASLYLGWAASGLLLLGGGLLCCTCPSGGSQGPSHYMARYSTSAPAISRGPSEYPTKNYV
Description: (§1) Flow cytometric evaluation of mouse antibody binding to CLDN3/4/6/9: 500,000 CLDN6 expressing cells (CHOS-hCLDN6, CHOS-CLDN3, CHOS-CLDN4, CHOS-CLDN9) were placed in FACS buffer (PBS+2% FBS)/well, added with the mouse antibody to be tested and incubated at 4° C. for 1 hour. The supernatant was removed by centrifugation, washing was performed twice with FACS buffer, secondary antibody (DyLight488 goat anti-mouse IgG, Abcam, Cat. No.: ab97015) was added and incubated at 4° C. for 0.5 hours. After staining, the supernatant was removed by centrifugation, washing was performed twice with FACS buffer, the cells were resuspended with FACS buffer, and then loaded on the machine for reading. A flow cytometer (BD company, model CantoII) was used to measure and read the experimental cells. During the measurement, the cell position was first delineated according to FCS and SSC, and then the fluorescence channel corresponding to the second antibody and SSC were selected to analyze the cells.

[2] = biological target: T2, human CLDN9 (Claudin 9) (human, UniProt O95484 1-217); test: flow cytometry on CHOS-CLDN9 cells
T2 construct: whole, on cells; Over-expressed on CHOS cells by lentiviral infection; also called CHOS-CLDN9
T2 sequence (looked up): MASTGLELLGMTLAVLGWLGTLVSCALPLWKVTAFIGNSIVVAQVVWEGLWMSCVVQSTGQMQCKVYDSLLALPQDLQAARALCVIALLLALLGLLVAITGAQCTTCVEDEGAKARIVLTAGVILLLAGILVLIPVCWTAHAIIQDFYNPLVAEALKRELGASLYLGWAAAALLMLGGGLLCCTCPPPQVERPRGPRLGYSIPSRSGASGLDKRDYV
Description: as §1

[3] = biological target: T1, human CLDN6 (Claudin 6); test: binding to CLDN6-expressing cells (FIG. 6: NEC8, Bewo)
[4] = biological target: T1, human CLDN6 (Claudin 6); test: cell-based or functional assay
[5] = biological target: T1, human CLDN6 (Claudin 6); test: flow cytometry on NEC8 tumor cells naturally expressing human CLDN6
Description: (§2) 500,000 CLDN6-naturally expressing tumor cells (0V90, ATCC; NEC8, JCRB; NTERA2, Nanjing Cobioer Biosciences Co., Ltd; Bewo, Nanjing Cobioer Biosciences Co., Ltd) were placed in FACS buffer for later use, in which round-bottom low-adsorption 96-well plates were used. Antibody samples were serially diluted with FACS buffer. The diluted antibody was added to the cell plates, and FACS buffer was added to the corresponding negative control wells, and incubation was performed at 4° C. for 1 hour. […] After staining, the supernatant was removed by centrifugation, washing was performed twice with FACS buffer, and the cells were resuspended by adding FACS buffer to each well, and then loaded on a machine for reading. A flow cytometer (BD Company, model CantoII) was used to measure and read the cells in the experimental plate. During the measurement, the position of cells was first delineated according to FCS and SSC, and then the fluorescence channel corresponding to the second antibody and SSC were selected to analyze the cells. GraphPad was used for data analysis, the logarithm of antibody concentration was used on the abscissa, and the average fluorescence intensity value was used on the ordinate. […]

[6] = biological target: T1, human CLDN6 (Claudin 6); test: flow cytometry on Bewo tumor cells naturally expressing human CLDN6
Description: as §2

[7] = biological target: T1, human CLDN6 (Claudin 6); test: flow cytometry on NTERA2 tumor cells naturally expressing human CLDN6
Description: as §2

[8] = biological target: T1, human CLDN6 (Claudin 6); test: flow cytometry on OV90 tumor cells naturally expressing human CLDN6
Description: as §2

binding result [1]: binds
binding result [2]: binds
B1: anti-CLDN6 murine antibody 9H3 (antibody, V domains shown)
VH: EVQLVESGGDLVKPGGSLKLSCAASGFTFSIYGMSWVRQSPDRRLEWVATISRDGSYTYFPDSVKGRFTISRDNAKNTLYLQMSSLKSEDTAMYYCVRLGDNDRGYAMDYWGQGTSVTVSS
VL: DVLMTQTPLSLPVSLGDQASISCRSSQSVVHVNGNTYLEWYLQKPGQSPRLLIYKVSNRFPGVPDRFSGSGSGTDFTLRISRVEAEDLGVYYCFQGSHVPRTFGGGTNLEIK
notes: Mouse hybridoma antibody, detected with anti-mouse IgG; the murine constant regions are not

fold change of the ability to bind against the unmutated antibody [3]: ≤ 3 times
B2: 9H3 hotspot mutant, LCDR1 NG mutated to NA and HCDR2 DG mutated to DA (antibody, V domains shown)
VH: B1 VH with G55A
VL: B1 VL with G34A
notes: also called 9H3 antibody with a hotspot mutant

fold change of the ability to bind against the unmutated antibody [3]: ≤ 3 times
B3: 9H3 hotspot mutant, LCDR1 NG mutated to SG and HCDR2 DG mutated to DA (antibody, V domains shown)
VH: B1 VH with G55A
VL: B1 VL with N33S
notes: as for B2

ADCC EC50, Bewo target cells, Jurkat-NFAT-Luc-CD16 effector reporter cells [4]: 0.21 µg/mL
ADCC EC50, NEC8 target cells, Jurkat-NFAT-Luc-CD16 effector reporter cells [4]: 0.071 µg/mL
ADCC EC50, NTERA2 target cells, Jurkat-NFAT-Luc-CD16 effector reporter cells [4]: 0.4 µg/mL
ADCC EC50, OV90 target cells, Jurkat-NFAT-Luc-CD16 effector reporter cells [4]: 0.16 µg/mL
EC50 [5]: 0.91 µg/mL
EC50 [6]: 0.9 µg/mL
EC50 [7]: 1.02 µg/mL
EC50 [8]: 3.79 µg/mL
B4: humanized antibody 7008-03 (antibody, human IgG1, kappa, V domains shown)
VH: EVQLVESGGGLVQPGGSLRLSCAASGFTFSIYGMSWVRQAPGKGLEWVATISRDASYTYFPDSVKGRFTISRDNAKNSLYLQMNSLRAEDTAVYYCVRLGDNDRGYAMDYWGQGTLVTVSS
VL: DVVMTQSPLSLPVTLGQPASISCRSSQSVVHVNANTYLEWYQQRPGQSPRLLIYKVSNRFPGVPDRFSGSGSGTDFTLKISRVEAEDVGVYYCFQGSHVPRTFGGGTKVEIKR
notes: Human IgG1 heavy chain constant region, human kappa light chain constant region

binding result [1]: binds
B5: anti-CLDN6 murine antibody 15H2 (antibody, V domains shown)
VH: DVQLQESGPGLVKPSQSLSLTCSVTGYSITSGYYWNWIRQFPGNKLEWMGYISYDGSNNYNPSLKNRFSIIRDTSKNQFFLKFNSVTTEDTATYYCARGGYYFDYWGQGTTLTVSS
VL: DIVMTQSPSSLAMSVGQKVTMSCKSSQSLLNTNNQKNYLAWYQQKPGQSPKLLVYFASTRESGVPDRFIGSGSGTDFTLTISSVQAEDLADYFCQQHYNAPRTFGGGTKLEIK
notes: as for B1

ADCC EC50, Bewo target cells, Jurkat-NFAT-Luc-CD16 effector reporter cells [4]: 0.7 µg/mL
ADCC EC50, NEC8 target cells, Jurkat-NFAT-Luc-CD16 effector reporter cells [4]: 0.15 µg/mL
ADCC EC50, NTERA2 target cells, Jurkat-NFAT-Luc-CD16 effector reporter cells [4]: 0.55 µg/mL
ADCC EC50, OV90 target cells, Jurkat-NFAT-Luc-CD16 effector reporter cells [4]: 0.55 µg/mL
EC50 [5]: 1.31 µg/mL
EC50 [6]: 1.06 µg/mL
EC50 [7]: 1.22 µg/mL
EC50 [8]: 2.85 µg/mL
B6: humanized antibody 7008-01 (antibody, human IgG1, kappa, V domains shown)
VH: QVQLQESGPGLVKPSETLSLTCTVSGYSITSGYYWNWIRQPPGKGLEWMGYISYSGSNNYNPSLKNRVTISRDTSKNQFSLKLSSVTAADTAVYYCARGGYYFDYWGQGTLVTVSS
VL: DIVMTQSPDSLAVSLGERATINCKSSQSLLNTNNQKNYLAWYQQKPGQPPKLLIYFASTRESGVPDRFSGSGSGTDFTLTISSLQAEDVAVYFCQQHYNAPRTFGGGTKVEIKR
notes: as for B4

From US20240150455A1 (SHANGHAI GENBASE BIOTECHNOLOGY, published 2024)
